In paper PMC10659949 (Protein Science : A Publication of the Protein Society, 2023) one finds binding result, koff and Kd data, which are given here for one molecule.

Conditions in all cases: both partners purified
The target of experiment [1] is T1, biotinylated α-bungarotoxin from Bungarus multicinctus (Bungarus multicinctus, UniProt P60615).
T1 construct: source: bought: Latoxan (purified, from B. multicinctus), then biotinylated
Briefly: BLI. (In general: Biolayer interferometry detects binding as a change in optical thickness at a sensor tip.)

Experiment [2] has as its target T2, biotinylated α-cobratoxin from Naja kaouthia (Naja kaouthia, UniProt P01391, biotin (1:1.25 toxin: biotin reagent molar ratio; site not stated)).
T2 construct: source: bought: Latoxan (purified, from N. kaouthia), then biotinylated
Briefly: BLI; […]; dissociation in HEPES-MES pH 5.5; 1:1 binding model, global fit; […].

Experiment [3] has as its target T2, biotinylated α-cobratoxin from Naja …. Briefly: BLI; […]) in HEPES-MES buffer pH 7.4; dissociation in HEPES-MES pH 7.4; 1:1 binding model, global fit; […].

T2 sequence (P01391 whole entry): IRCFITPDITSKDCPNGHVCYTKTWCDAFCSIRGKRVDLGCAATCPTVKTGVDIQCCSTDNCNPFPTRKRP
T1 sequence (P60615 22-95): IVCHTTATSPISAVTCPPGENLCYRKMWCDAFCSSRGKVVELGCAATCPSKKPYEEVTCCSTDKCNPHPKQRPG

B1: Fab TPL0197_01_C08 (Fab, V domains shown)
VH: EVQLVQSGAEVKKPGASVKVSCKASGYTFTSYGISWVRQAPGQGLEWMGWISAYNGNTNYAQKLQGRVTMTTDTSTSTAYMELRSLRSDDTAVYYCAREEYCSSTSCYVGNYYGMDVWGQGTLVTVSS
VL: DIQMTQSPSSLSASVGDRVTITCQASQDISNYLNWYQQKPGKAPKLLIYAASSLESGVPSRFSGSGSGTEFTLTITNLQVDDFATYYCQRYDSNFAFGQGTKVEIK
notes: also called Fab C08; source: ExpiCHO cells, purified (Ni-NTA / HisTrap Excel, desalting)
For B1, the binding result in experiment [1] is listed as “no binding (tested: 300 nM)”. In experiment [2], the koff – broadly, the rate constant with which the complex falls apart – was 0.00535 s⁻¹. In experiment [3], the Kd (usually the concentration at which binding is half-saturated) worked out at 44.8 nM and the koff is 0.00076 s⁻¹.
